# Assay results: US10941182 (Amgen, dated 2021)
# Starred links: 1 amine or outer side, 2 acyl side, 3 side chain; linkers in the order of their positions; H or OH if unused. Non-standard residues stand in square brackets, D forms with d. *: point of attachment. AC4Abu = α-carboxy-4-aminobutyric acid, O=C(C(CCN[*:1])C(=O)[*:3])[*:2]; Oic = O=C(O)[C@@H]1C[C@@H]2CCCC[C@@H]2N1; Phe(4-Cl) = N[C@@H](Cc1ccc(Cl)cc1)C(=O)O; γGlu = O=C(O)[C@H](CCC(=O)[*:2])N[*:1]; 2Nal = N[C@@H](Cc1ccc2ccccc2c1)C(=O)O; NMeR = CN[C@@H](CCCNC(=N)N)C(=O)O; Tridecanoyl = CCCCCCCCCCCCC(=O)*; Cha = N[C@@H](CC1CCCCC1)C(=O)O; αMeL = CC(C)C[C@](C)(N)C(=O)O; Tle = CC(C)(C)[C@H](N)C(=O)O; αMeP = C[C@@]1(C(=O)O)CCCN1; β3hP = O=C(O)C[C@@H]1CCCN1; β3hS = N[C@@H](CO)CC(=O)O; Nle = CCCC[C@H](N)C(=O)O; AEEA = NCCOCCOCC(=O)O; Aib = CC(C)(N)C(=O)O; BLeu = β-leucine
# T1: human APJ receptor (human, UniProt P35414 1-380)
# T1 sequence (looked up): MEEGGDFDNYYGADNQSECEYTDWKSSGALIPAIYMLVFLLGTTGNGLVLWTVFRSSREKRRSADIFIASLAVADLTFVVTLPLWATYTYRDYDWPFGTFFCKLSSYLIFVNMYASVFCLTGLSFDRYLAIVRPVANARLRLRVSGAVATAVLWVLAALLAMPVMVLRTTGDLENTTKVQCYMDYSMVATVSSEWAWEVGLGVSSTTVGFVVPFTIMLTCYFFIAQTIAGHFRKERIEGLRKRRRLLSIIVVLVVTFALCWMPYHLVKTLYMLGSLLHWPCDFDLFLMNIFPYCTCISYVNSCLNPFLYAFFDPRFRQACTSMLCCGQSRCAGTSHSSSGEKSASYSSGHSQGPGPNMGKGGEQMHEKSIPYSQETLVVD
# T2: rat APJ receptor (rat, UniProt Q9JHG3 1-377)
# T2 sequence (looked up): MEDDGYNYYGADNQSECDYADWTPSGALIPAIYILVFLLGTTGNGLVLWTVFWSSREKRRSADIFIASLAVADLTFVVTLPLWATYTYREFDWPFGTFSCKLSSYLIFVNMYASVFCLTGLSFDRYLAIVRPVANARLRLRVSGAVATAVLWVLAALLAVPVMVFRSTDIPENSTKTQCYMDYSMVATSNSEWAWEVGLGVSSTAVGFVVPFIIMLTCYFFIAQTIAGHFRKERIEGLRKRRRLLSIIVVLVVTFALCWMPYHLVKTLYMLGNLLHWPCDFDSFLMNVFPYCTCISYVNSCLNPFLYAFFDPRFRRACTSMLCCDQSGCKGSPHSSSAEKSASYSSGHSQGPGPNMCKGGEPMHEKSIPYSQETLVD
# B1: Apelin polypeptide SEQ ID NO: 389 (peptide)
# peptide: Tridecanoyl-[γGlu][AEEA][AEEA]QRP[NMeR][αMeL]SHKG[Oic][Nle][Phe(4-Cl)]-OH
# SMILES: CCCCCCCCCCCCC(=O)N[C@@H](CCC(=O)NCCOCCOCC(=O)NCCOCCOCC(=O)N[C@@H](CCC(N)=O)C(=O)N[C@@H](CCCNC(=N)N)C(=O)N1CCC[C@H]1C(=O)N(C)[C@@H](CCCNC(=N)N)C(=O)N[C@@](C)(CC(C)C)C(=O)N[C@@H](CO)C(=O)N[C@@H](Cc1c[nH]cn1)C(=O)N[C@@H](CCCCN)C(=O)NCC(=O)N1[C@H](C(=O)N[C@@H](CCCC)C(=O)N[C@@H](Cc2ccc(Cl)cc2)C(=O)O)C[C@@H]2CCCC[C@@H]21)C(=O)O
# B2: Apelin polypeptide SEQ ID NO: 554 (peptide)
# peptide: Tridecanoyl-[γGlu][AEEA][AEEA][dQ]RP[NMeR][αMeL]SHKG[Oic][Nle][β3hP][Phe(4-Cl)]-OH
# SMILES: CCCCCCCCCCCCC(=O)N[C@@H](CCC(=O)NCCOCCOCC(=O)NCCOCCOCC(=O)N[C@H](CCC(N)=O)C(=O)N[C@@H](CCCNC(=N)N)C(=O)N1CCC[C@H]1C(=O)N(C)[C@@H](CCCNC(=N)N)C(=O)N[C@@](C)(CC(C)C)C(=O)N[C@@H](CO)C(=O)N[C@@H](Cc1c[nH]cn1)C(=O)N[C@@H](CCCCN)C(=O)NCC(=O)N1[C@H](C(=O)N[C@@H](CCCC)C(=O)N2CCC[C@H]2CC(=O)N[C@@H](Cc2ccc(Cl)cc2)C(=O)O)C[C@@H]2CCCC[C@@H]21)C(=O)O
# B3: Apelin polypeptide SEQ ID NO: 555 (peptide)
# peptide: XXXQRPRLSHKGXXPF
# modifications: {TDA}[AC4Abu][Aeea][Aeea]qRP[NMeArg][aMeLeu]SHKG[Pip][Nle][aMePro][4-Cl-F]{COOH}
# B4: Apelin polypeptide SEQ ID NO: 605 (peptide)
# peptide: XXXQRPRLSHKGXXPF
# modifications: {TDA}[AC4Abu][Aeea][Aeea]QRP[NMeArg][aMeLeu]SHKG[Pip][Nle][aMePro][4-Cl-F]{COOH}
# B5: Apelin polypeptide SEQ ID NO: 472 (peptide)
# peptide: Tridecanoyl-[γGlu][AEEA][AEEA]QRP[NMeR][αMeL]SHKGP[Nle]P[2Nal]-OH
# SMILES: CCCCCCCCCCCCC(=O)N[C@@H](CCC(=O)NCCOCCOCC(=O)NCCOCCOCC(=O)N[C@@H](CCC(N)=O)C(=O)N[C@@H](CCCNC(=N)N)C(=O)N1CCC[C@H]1C(=O)N(C)[C@@H](CCCNC(=N)N)C(=O)N[C@@](C)(CC(C)C)C(=O)N[C@@H](CO)C(=O)N[C@@H](Cc1c[nH]cn1)C(=O)N[C@@H](CCCCN)C(=O)NCC(=O)N1CCC[C@H]1C(=O)N[C@@H](CCCC)C(=O)N1CCC[C@H]1C(=O)N[C@@H](Cc1ccc2ccccc2c1)C(=O)O)C(=O)O
# B6: Apelin polypeptide SEQ ID NO: 422 (peptide)
# peptide: XXXQRPRLSHKGPXPF
# modifications: {TDA}[AC4Abu][Aeea][Aeea]QRP[NMeArg][BhLeu]SHKGP[Nle]P[4-Cl-F]{COOH}
# B7: Apelin polypeptide SEQ ID NO: 391 (peptide)
# peptide: Tridecanoyl-[γGlu][AEEA][AEEA]QRP[NMeR][BLeu]SHKG[Oic][Nle]P[Phe(4-Cl)]-OH
# B8: Apelin polypeptide SEQ ID NO: 500 (peptide)
# peptide: Tridecanoyl-[γGlu][AEEA][AEEA][dQ]RP[NMeR][Cha][β3hS]HKG[Oic][Nle][Aib][Phe(4-Cl)]-OH
# SMILES: CCCCCCCCCCCCC(=O)N[C@@H](CCC(=O)NCCOCCOCC(=O)NCCOCCOCC(=O)N[C@H](CCC(N)=O)C(=O)N[C@@H](CCCNC(=N)N)C(=O)N1CCC[C@H]1C(=O)N(C)[C@@H](CCCNC(=N)N)C(=O)N[C@@H](CC1CCCCC1)C(=O)N[C@@H](CO)CC(=O)N[C@@H](Cc1c[nH]cn1)C(=O)N[C@@H](CCCCN)C(=O)NCC(=O)N1[C@H](C(=O)N[C@@H](CCCC)C(=O)NC(C)(C)C(=O)N[C@@H](Cc2ccc(Cl)cc2)C(=O)O)C[C@@H]2CCCC[C@@H]21)C(=O)O
# B9: Apelin polypeptide SEQ ID NO: 438 (peptide)
# peptide: Tridecanoyl-[γGlu][AEEA][AEEA]QRP[NMeR][Cha]S[Tle]KG[Oic][Nle]P[Phe(4-Cl)]-OH
# SMILES: CCCCCCCCCCCCC(=O)N[C@@H](CCC(=O)NCCOCCOCC(=O)NCCOCCOCC(=O)N[C@@H](CCC(N)=O)C(=O)N[C@@H](CCCNC(=N)N)C(=O)N1CCC[C@H]1C(=O)N(C)[C@@H](CCCNC(=N)N)C(=O)N[C@@H](CC1CCCCC1)C(=O)N[C@@H](CO)C(=O)N[C@H](C(=O)N[C@@H](CCCCN)C(=O)NCC(=O)N1[C@H](C(=O)N[C@@H](CCCC)C(=O)N2CCC[C@H]2C(=O)N[C@@H](Cc2ccc(Cl)cc2)C(=O)O)C[C@@H]2CCCC[C@@H]21)C(C)(C)C)C(=O)O
# B10: Apelin polypeptide SEQ ID NO: 530 (peptide)
# peptide: Tridecanoyl-[γGlu][AEEA][AEEA][dQ]RP[NMeR][Cha]SAKG[Oic][Nle][Aib][Phe(4-Cl)]-OH
# SMILES: CCCCCCCCCCCCC(=O)N[C@@H](CCC(=O)NCCOCCOCC(=O)NCCOCCOCC(=O)N[C@H](CCC(N)=O)C(=O)N[C@@H](CCCNC(=N)N)C(=O)N1CCC[C@H]1C(=O)N(C)[C@@H](CCCNC(=N)N)C(=O)N[C@@H](CC1CCCCC1)C(=O)N[C@@H](CO)C(=O)N[C@@H](C)C(=O)N[C@@H](CCCCN)C(=O)NCC(=O)N1[C@H](C(=O)N[C@@H](CCCC)C(=O)NC(C)(C)C(=O)N[C@@H](Cc2ccc(Cl)cc2)C(=O)O)C[C@@H]2CCCC[C@@H]21)C(=O)O
# B11: Apelin polypeptide SEQ ID NO: 444 (peptide)
# peptide: Tridecanoyl-[γGlu][AEEA][AEEA]QRP[NMeR][Cha]SH[AMeK]G[Oic][Nle]P[Phe(4-Cl)]-OH
# B12: Apelin polypeptide SEQ ID NO: 543 (peptide)
# peptide: Tridecanoyl-[γGlu][AEEA][AEEA][dQ]RP[NMeR][Cha]SHK[Tle][Oic][Nle][Aib][Phe(4-Cl)]-OH
# SMILES: CCCCCCCCCCCCC(=O)N[C@@H](CCC(=O)NCCOCCOCC(=O)NCCOCCOCC(=O)N[C@H](CCC(N)=O)C(=O)N[C@@H](CCCNC(=N)N)C(=O)N1CCC[C@H]1C(=O)N(C)[C@@H](CCCNC(=N)N)C(=O)N[C@@H](CC1CCCCC1)C(=O)N[C@@H](CO)C(=O)N[C@@H](Cc1c[nH]cn1)C(=O)N[C@@H](CCCCN)C(=O)N[C@H](C(=O)N1[C@H](C(=O)N[C@@H](CCCC)C(=O)NC(C)(C)C(=O)N[C@@H](Cc2ccc(Cl)cc2)C(=O)O)C[C@@H]2CCCC[C@@H]21)C(C)(C)C)C(=O)O
# B13: Apelin polypeptide SEQ ID NO: 414 (peptide)
# peptide: Tridecanoyl-[AC4Abu][AEEA][AEEA]QRP[NMeR][Cha]SHKG[Aib][Nle]P[Phe(4-Cl)]-OH
# SMILES: CCCCCCCCCCCCC(=O)NCCC(C(=O)O)C(=O)NCCOCCOCC(=O)NCCOCCOCC(=O)N[C@@H](CCC(N)=O)C(=O)N[C@@H](CCCNC(=N)N)C(=O)N1CCC[C@H]1C(=O)N(C)[C@@H](CCCNC(=N)N)C(=O)N[C@@H](CC1CCCCC1)C(=O)N[C@@H](CO)C(=O)N[C@@H](Cc1c[nH]cn1)C(=O)N[C@@H](CCCCN)C(=O)NCC(=O)NC(C)(C)C(=O)N[C@@H](CCCC)C(=O)N1CCC[C@H]1C(=O)N[C@@H](Cc1ccc(Cl)cc1)C(=O)O
# B14: Apelin polypeptide SEQ ID NO: 498 (peptide)
# peptide: Tridecanoyl-[γGlu][AEEA][AEEA][dQ]RP[NMeR][Cha]SHKG[αMeP][Nle][Aib][Phe(4-Cl)]-OH
# SMILES: CCCCCCCCCCCCC(=O)N[C@@H](CCC(=O)NCCOCCOCC(=O)NCCOCCOCC(=O)N[C@H](CCC(N)=O)C(=O)N[C@@H](CCCNC(=N)N)C(=O)N1CCC[C@H]1C(=O)N(C)[C@@H](CCCNC(=N)N)C(=O)N[C@@H](CC1CCCCC1)C(=O)N[C@@H](CO)C(=O)N[C@@H](Cc1c[nH]cn1)C(=O)N[C@@H](CCCCN)C(=O)NCC(=O)N1CCC[C@@]1(C)C(=O)N[C@@H](CCCC)C(=O)NC(C)(C)C(=O)N[C@@H](Cc1ccc(Cl)cc1)C(=O)O)C(=O)O
# B15: Apelin polypeptide SEQ ID NO: 545 (peptide)
# peptide: Tridecanoyl-[γGlu][AEEA][AEEA][dQ]RP[NMeR][Cha]SHKG[αMeP][Nle][β3hP][Phe(4-Cl)]-OH
# SMILES: CCCCCCCCCCCCC(=O)N[C@@H](CCC(=O)NCCOCCOCC(=O)NCCOCCOCC(=O)N[C@H](CCC(N)=O)C(=O)N[C@@H](CCCNC(=N)N)C(=O)N1CCC[C@H]1C(=O)N(C)[C@@H](CCCNC(=N)N)C(=O)N[C@@H](CC1CCCCC1)C(=O)N[C@@H](CO)C(=O)N[C@@H](Cc1c[nH]cn1)C(=O)N[C@@H](CCCCN)C(=O)NCC(=O)N1CCC[C@@]1(C)C(=O)N[C@@H](CCCC)C(=O)N1CCC[C@H]1CC(=O)N[C@@H](Cc1ccc(Cl)cc1)C(=O)O)C(=O)O
# Molecular target: T1, human APJ receptor
# Assay: cell-based or functional assay
row,Binder,EC50 Human APJ Receptor (GTPγS assay)
1,B1,196 pM
2,B2,867 pM
3,B3,102 pM
4,B4,83.2 pM
5,B5,20.4 pM
6,B6,169 pM
7,B7,565 pM
8,B8,588 pM
9,B9,1490 pM
10,B10,380 pM
11,B11,5600 pM
12,B12,583 pM
13,B13,3390 pM
14,B14,29.9 pM
15,B15,1300 pM

# Molecular target: T2, rat APJ receptor
# Assay: cell-based or functional assay
row,Binder,EC50 Rat APJ Receptor (GTPγS assay)
1,B1,0.365 nM
2,B2,2.83 nM
3,B3,0.421 nM
4,B4,0.298 nM
5,B5,0.092 nM
6,B6,0.197 nM
7,B7,1.5 nM
8,B8,3.14 nM
9,B9,1.28 nM
10,B10,0.975 nM
11,B11,10.1 nM
12,B12,1.4 nM
13,B13,3.79 nM
14,B14,0.138 nM
15,B15,3.7 nM
